For this assay, the target named is wild-type Bacteroides fragilis glutamate decarboxylase (BfGADWT) (Bacteroides fragilis). As to the kind of experiment: SEC.

This is an account of results in article PMC12013497.

As usually defined, the stoichiometry N is the number of molecules, sites or subunits per partner or assembly.

On to “wild-type Bacteroides fragilis glutamate decarboxylase (BfGADWT) (enzyme)”, for which the stoichiometry N was 6.
